{
  "source": "IntAct's records for PubMed 20562859",
  "key": {"atg3_human ATG3": {"biological_target": "atg3_human ATG3 (UniProt Q9NT62)", "sequence (Q9NT62 whole entry)": "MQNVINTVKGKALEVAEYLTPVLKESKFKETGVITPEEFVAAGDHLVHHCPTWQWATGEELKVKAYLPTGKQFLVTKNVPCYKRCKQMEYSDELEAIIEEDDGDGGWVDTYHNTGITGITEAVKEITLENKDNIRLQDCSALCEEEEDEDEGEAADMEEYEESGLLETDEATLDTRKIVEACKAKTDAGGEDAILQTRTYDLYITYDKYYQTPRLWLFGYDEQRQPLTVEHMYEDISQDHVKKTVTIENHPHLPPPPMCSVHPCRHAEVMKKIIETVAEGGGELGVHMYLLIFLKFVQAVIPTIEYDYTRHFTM"}, "echa_human HADHA": {"biological_target": "echa_human HADHA (UniProt P40939)", "sequence (P40939 whole entry)": "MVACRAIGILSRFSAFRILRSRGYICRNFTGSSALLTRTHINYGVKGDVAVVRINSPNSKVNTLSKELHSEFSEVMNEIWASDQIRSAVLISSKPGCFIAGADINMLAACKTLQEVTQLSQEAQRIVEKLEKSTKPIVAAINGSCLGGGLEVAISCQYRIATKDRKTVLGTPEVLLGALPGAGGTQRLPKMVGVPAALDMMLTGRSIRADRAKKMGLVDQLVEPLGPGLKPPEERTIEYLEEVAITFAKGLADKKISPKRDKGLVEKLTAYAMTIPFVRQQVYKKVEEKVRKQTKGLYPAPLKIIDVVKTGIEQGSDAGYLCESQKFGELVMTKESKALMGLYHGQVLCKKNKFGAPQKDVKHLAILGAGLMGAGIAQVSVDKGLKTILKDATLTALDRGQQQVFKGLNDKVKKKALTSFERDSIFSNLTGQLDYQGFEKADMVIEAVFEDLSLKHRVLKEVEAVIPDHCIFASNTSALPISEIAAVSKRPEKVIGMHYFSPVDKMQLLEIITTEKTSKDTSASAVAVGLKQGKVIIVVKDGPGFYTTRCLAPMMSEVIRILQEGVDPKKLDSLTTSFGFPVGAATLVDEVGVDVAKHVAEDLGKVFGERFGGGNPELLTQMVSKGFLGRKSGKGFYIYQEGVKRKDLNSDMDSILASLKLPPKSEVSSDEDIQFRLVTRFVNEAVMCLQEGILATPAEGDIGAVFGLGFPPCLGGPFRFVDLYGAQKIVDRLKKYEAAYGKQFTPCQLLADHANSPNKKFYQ"}, "kbtb7_human KBTBD7": {"biological_target": "T1, kbtb7_human KBTBD7 (UniProt Q8WVZ9)", "T1 sequence": "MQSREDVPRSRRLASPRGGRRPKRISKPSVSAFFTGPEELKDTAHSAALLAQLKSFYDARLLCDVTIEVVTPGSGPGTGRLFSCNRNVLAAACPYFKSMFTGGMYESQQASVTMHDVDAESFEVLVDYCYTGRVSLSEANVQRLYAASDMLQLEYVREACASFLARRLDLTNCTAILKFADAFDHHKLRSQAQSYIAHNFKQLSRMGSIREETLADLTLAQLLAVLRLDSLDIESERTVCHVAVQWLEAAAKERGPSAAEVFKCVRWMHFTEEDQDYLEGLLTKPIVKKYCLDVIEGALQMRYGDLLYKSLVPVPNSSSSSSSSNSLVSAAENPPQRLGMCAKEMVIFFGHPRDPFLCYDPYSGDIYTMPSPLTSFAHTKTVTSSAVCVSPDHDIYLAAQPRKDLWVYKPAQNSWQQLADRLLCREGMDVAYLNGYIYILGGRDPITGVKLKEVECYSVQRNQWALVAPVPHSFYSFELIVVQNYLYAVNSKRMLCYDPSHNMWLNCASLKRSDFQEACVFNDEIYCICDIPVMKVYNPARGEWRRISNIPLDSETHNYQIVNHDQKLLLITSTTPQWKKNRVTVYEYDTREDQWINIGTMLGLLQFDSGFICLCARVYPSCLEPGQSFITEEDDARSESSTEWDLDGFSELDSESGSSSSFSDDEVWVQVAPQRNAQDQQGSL"}, "atg13_human ATG13": {"biological_target": "T2, atg13_human ATG13 (UniProt O75143)", "T2 sequence": "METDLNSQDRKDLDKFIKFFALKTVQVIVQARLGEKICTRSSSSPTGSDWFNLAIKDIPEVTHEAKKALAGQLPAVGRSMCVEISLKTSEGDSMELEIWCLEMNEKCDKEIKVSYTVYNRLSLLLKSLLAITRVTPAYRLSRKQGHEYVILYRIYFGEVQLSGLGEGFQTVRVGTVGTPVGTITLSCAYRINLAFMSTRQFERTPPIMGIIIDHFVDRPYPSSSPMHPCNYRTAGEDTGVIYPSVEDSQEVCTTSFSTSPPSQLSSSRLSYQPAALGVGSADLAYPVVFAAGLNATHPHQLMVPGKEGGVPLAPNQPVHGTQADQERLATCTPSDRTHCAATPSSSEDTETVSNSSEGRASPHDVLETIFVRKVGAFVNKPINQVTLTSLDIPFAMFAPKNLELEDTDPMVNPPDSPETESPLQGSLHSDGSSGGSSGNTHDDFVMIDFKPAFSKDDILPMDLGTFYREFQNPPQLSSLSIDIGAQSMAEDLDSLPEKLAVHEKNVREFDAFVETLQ"}, "ATG16L2": {"biological_target": "T3, ATG16L2 (UniProt Q8NAA4)", "T3 sequence": "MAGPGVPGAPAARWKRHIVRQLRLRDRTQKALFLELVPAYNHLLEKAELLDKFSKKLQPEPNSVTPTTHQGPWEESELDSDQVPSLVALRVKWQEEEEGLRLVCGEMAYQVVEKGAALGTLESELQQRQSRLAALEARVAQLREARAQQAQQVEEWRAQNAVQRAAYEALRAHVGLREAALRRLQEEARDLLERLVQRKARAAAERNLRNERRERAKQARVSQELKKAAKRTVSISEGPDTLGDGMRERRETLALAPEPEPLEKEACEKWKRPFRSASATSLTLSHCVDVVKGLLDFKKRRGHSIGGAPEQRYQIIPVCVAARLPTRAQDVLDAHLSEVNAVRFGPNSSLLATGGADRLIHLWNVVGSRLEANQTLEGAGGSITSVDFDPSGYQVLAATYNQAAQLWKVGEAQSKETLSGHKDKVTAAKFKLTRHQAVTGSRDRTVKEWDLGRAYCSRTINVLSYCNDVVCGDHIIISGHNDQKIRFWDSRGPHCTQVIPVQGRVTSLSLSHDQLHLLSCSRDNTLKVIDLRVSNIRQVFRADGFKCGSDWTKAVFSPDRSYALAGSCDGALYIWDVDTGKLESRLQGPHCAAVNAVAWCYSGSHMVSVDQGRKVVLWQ"}, "rasf5_human RASSF5": {"biological_target": "T4, rasf5_human RASSF5 (UniProt Q8WWW0)", "T4 sequence": "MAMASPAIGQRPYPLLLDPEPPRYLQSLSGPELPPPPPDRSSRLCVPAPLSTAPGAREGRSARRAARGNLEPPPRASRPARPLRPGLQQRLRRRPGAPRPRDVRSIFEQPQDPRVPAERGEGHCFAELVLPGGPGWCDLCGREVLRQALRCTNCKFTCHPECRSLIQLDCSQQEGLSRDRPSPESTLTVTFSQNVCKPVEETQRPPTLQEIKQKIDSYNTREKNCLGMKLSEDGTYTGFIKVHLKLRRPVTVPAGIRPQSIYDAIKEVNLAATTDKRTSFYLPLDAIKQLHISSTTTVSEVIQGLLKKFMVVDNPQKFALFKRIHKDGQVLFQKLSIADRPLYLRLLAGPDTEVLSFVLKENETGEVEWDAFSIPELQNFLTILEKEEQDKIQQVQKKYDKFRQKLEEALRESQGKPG"}},
  "data": [
    {"substance": "Microtubule-associated protein 1 light chain 3 beta (Homo sapiens) (from UniProt Q9GZQ8) R69A", "values": [
      {"measurement": "effect of a mutation on the interaction", "setting": "atg3_human ATG3", "result": "disrupting interaction"},
      {"measurement": "effect of a mutation on the interaction", "setting": "echa_human HADHA", "result": "disrupting interaction"},
      {"measurement": "effect of a mutation on the interaction", "setting": "kbtb7_human KBTBD7", "result": "disrupting interaction"},
      {"measurement": "effect of a mutation on the interaction", "setting": "atg13_human ATG13", "result": "decreasing interaction"}
    ]},
    {"substance": "Microtubule-associated protein 1 light chain 3 beta (Homo sapiens) (from UniProt Q9GZQ8) F52A;L53A", "values": [
      {"measurement": "effect of a mutation on the interaction", "setting": "ATG16L2", "result": "increasing interaction"},
      {"measurement": "effect of a mutation on the interaction", "setting": "atg3_human ATG3", "result": "disrupting interaction"},
      {"measurement": "effect of a mutation on the interaction", "setting": "echa_human HADHA", "result": "increasing interaction"},
      {"measurement": "effect of a mutation on the interaction", "setting": "kbtb7_human KBTBD7", "result": "decreasing interaction"},
      {"measurement": "effect of a mutation on the interaction", "setting": "rasf5_human RASSF5", "result": "increasing interaction"}
    ]}
  ]
}
